Test results taken from publication PMC3919264.

Experiments:
[1] = molecular target: taxol-polymerized microtubules from bovine brain tubulin (bovine (purified from bovine brain)) (UniProt Q6B856); assay: co-sedimentation; MT pelleting assay with 4 mU apyrase ('nucleotide-free' state): Kif15 19-375 (1–12 µM) mixed with taxol-polymerized MTs (5 µM), 50 mM PIPES pH 6.9, 20 mM NaCl, 2 mM MgCl2, 1 mM DTT, room temperature 10 min, 100 000g at 25°C for 20 min, SDS–PAGE of supernatants and pellets
[2] = molecular target: taxol-polymerized microtubules from bovine brain tubulin (bovine (purified from bovine brain)) (UniProt Q6B856); assay: co-sedimentation; MT pelleting assay with 2 mM AMP-PNP: Kif15 19-375 (1–12 µM) mixed with taxol-polymerized MTs (5 µM), 50 mM PIPES pH 6.9, 20 mM NaCl, 2 mM MgCl2, 1 mM DTT, room temperature 10 min, 100 000g at 25°C for 20 min, SDS–PAGE of supernatants and pellets
[3] = molecular target: taxol-polymerized microtubules from bovine brain tubulin (bovine (purified from bovine brain)) (UniProt Q6B856)
[4] = molecular target: taxol-polymerized microtubules from bovine brain tubulin (bovine (purified from bovine brain)) (UniProt Q6B856); remark: listed apart in the source

Kd [1]: 400 nM
stoichiometry N [1]: 1.3
Kd [2]: 500 nM
stoichiometry N [2]: 1.1
K 0.5,MT of the MT-stimulated ATPase activity (MTs 0 to 10 µM, 1 mM ATP, no KCl, 25°C) [3]: 1.1 µM
MT activation of Mant-ADP release, stopped flow, 25°C, various MT concentrations with chasing Mg2+-ATP (MTs here from pig brain tubulin; preliminary data) [4]: 1000 fold
B1: Homo sapiens Kif15 motor domain and neck-linker region (Kif15 19-375) (domain or fragment)
chain: QPSNEGDAIKVFVRIRPPAERSGSADGEQNLCLSVLSSTSLRLHSNPEPKTFTFDHVADVDTTQESVFATVAKSIVESCMSGYNGTIFAYGQTGSGKTFTMMGPSESDNFSHNLRGVIPRSFEYLFSLIDREKEKAGAGKSFLCKCSFIEIYNEQIYDLLDSASAGLYLREHIKKGVFVVGAVEQVVTSAAEAYQVLSGGWRNRRVASTSMNRESSRSHAVFTITIESMEKSNEIVNIRTSLLNLVDLAGSERQKDTHAEGMRLKEAGNINRSLSCLGQVITALVDVGNGKQRHVCYRDSKLTFLLRDSLGGNAKTAIIANVHPGSRCFGETLSTLNFAQRAKLIKNKAVVNEDTQG
